± gives the uncertainty stated by the source.
B1: Cyclin-F, residues 28 to 80; numbered along this chain, P41002 (parent)
chain: RNLTILSLPEDVLFHILKWLSVEDILAVRAVHSQLKDLVDNHASVWACASFQE

Variants of: B1
Assay: abundance fitness (aPCA) (normalised: wild type 0, dead -1); higher = more abundant; growth selection in yeast, the domain comes from the species named
Details: Homo sapiens

**Q.** For RNLTILSLPEDVLFHISKWLSVEDILAVRAVHSQLKDLVDNHASVWACASFQE [L17S], which abundance fitness is on record?
**A.** -0.896 ± 0.14

**Q.** With RNLTILSLPEDVLFHITKWLSVEDILAVRAVHSQLKDLVDNHASVWACASFQE [L17T] as the variant, how does the abundance fitness read?
**A.** -0.63 ± 0.18

**Q.** Which abundance fitness does the source give for RNLTILSLPEDVLFHIVKWLSVEDILAVRAVHSQLKDLVDNHASVWACASFQE [L17V] here?
**A.** -0.169 ± 0.093

**Q.** With RNLTILSLPEDVLFHILAWLSVEDILAVRAVHSQLKDLVDNHASVWACASFQE [K18A] as the variant, how does the abundance fitness read?
**A.** -0.314 ± 0.13

**Q.** For RNLTILSLPEDVLFHILCWLSVEDILAVRAVHSQLKDLVDNHASVWACASFQE [K18C], which abundance fitness is on record?
**A.** -0.597 ± 0.2

**Q.** For RNLTILSLPEDVLFHILDWLSVEDILAVRAVHSQLKDLVDNHASVWACASFQE [K18D], which abundance fitness is on record?
**A.** -0.483 ± 0.19

**Q.** For RNLTILSLPEDVLFHILEWLSVEDILAVRAVHSQLKDLVDNHASVWACASFQE [K18E], which abundance fitness is on record?
**A.** -0.148 ± 0.13

**Q.** Which abundance fitness does the source give for RNLTILSLPEDVLFHILFWLSVEDILAVRAVHSQLKDLVDNHASVWACASFQE [K18F] here?
**A.** -0.573 ± 0.16

**Q.** For RNLTILSLPEDVLFHILGWLSVEDILAVRAVHSQLKDLVDNHASVWACASFQE [K18G], which abundance fitness is on record?
**A.** -0.132 ± 0.1

**Q.** For RNLTILSLPEDVLFHILHWLSVEDILAVRAVHSQLKDLVDNHASVWACASFQE [K18H], which abundance fitness is on record?
**A.** -0.122 ± 0.17

**Q.** Which abundance fitness does the source give for RNLTILSLPEDVLFHILIWLSVEDILAVRAVHSQLKDLVDNHASVWACASFQE [K18I] here?
**A.** -0.449 ± 0.16

**Q.** With RNLTILSLPEDVLFHILLWLSVEDILAVRAVHSQLKDLVDNHASVWACASFQE [K18L] as the variant, how does the abundance fitness read?
**A.** -0.553 ± 0.092

**Q.** For RNLTILSLPEDVLFHILMWLSVEDILAVRAVHSQLKDLVDNHASVWACASFQE [K18M], which abundance fitness is on record?
**A.** -0.251 ± 0.16

**Q.** Which abundance fitness does the source give for RNLTILSLPEDVLFHILNWLSVEDILAVRAVHSQLKDLVDNHASVWACASFQE [K18N] here?
**A.** -0.107 ± 0.14

**Q.** For RNLTILSLPEDVLFHILPWLSVEDILAVRAVHSQLKDLVDNHASVWACASFQE [K18P], which abundance fitness is on record?
**A.** -0.72 ± 0.17

**Q.** With RNLTILSLPEDVLFHILQWLSVEDILAVRAVHSQLKDLVDNHASVWACASFQE [K18Q] as the variant, how does the abundance fitness read?
**A.** -0.081 ± 0.16

**Q.** Which abundance fitness does the source give for RNLTILSLPEDVLFHILRWLSVEDILAVRAVHSQLKDLVDNHASVWACASFQE [K18R] here?
**A.** -0.14 ± 0.091

**Q.** For RNLTILSLPEDVLFHILSWLSVEDILAVRAVHSQLKDLVDNHASVWACASFQE [K18S], which abundance fitness is on record?
**A.** -0.215 ± 0.097

**Q.** With RNLTILSLPEDVLFHILTWLSVEDILAVRAVHSQLKDLVDNHASVWACASFQE [K18T] as the variant, how does the abundance fitness read?
**A.** -0.254 ± 0.13

**Q.** For RNLTILSLPEDVLFHILVWLSVEDILAVRAVHSQLKDLVDNHASVWACASFQE [K18V], which abundance fitness is on record?
**A.** -0.452 ± 0.11

**Q.** With RNLTILSLPEDVLFHILYWLSVEDILAVRAVHSQLKDLVDNHASVWACASFQE [K18Y] as the variant, how does the abundance fitness read?
**A.** -0.505 ± 0.22

**Q.** With RNLTILSLPEDVLFHILKCLSVEDILAVRAVHSQLKDLVDNHASVWACASFQE [W19C] as the variant, how does the abundance fitness read?
**A.** 0.229 ± 0.11

**Q.** With RNLTILSLPEDVLFHILKDLSVEDILAVRAVHSQLKDLVDNHASVWACASFQE [W19D] as the variant, how does the abundance fitness read?
**A.** -0.137 ± 0.12

**Q.** For RNLTILSLPEDVLFHILKELSVEDILAVRAVHSQLKDLVDNHASVWACASFQE [W19E], which abundance fitness is on record?
**A.** 0.227 ± 0.16

**Q.** With RNLTILSLPEDVLFHILKGLSVEDILAVRAVHSQLKDLVDNHASVWACASFQE [W19G] as the variant, how does the abundance fitness read?
**A.** -0.273 ± 0.097

**Q.** Which abundance fitness does the source give for RNLTILSLPEDVLFHILKHLSVEDILAVRAVHSQLKDLVDNHASVWACASFQE [W19H] here?
**A.** 0.257 ± 0.18

**Q.** Which abundance fitness does the source give for RNLTILSLPEDVLFHILKKLSVEDILAVRAVHSQLKDLVDNHASVWACASFQE [W19K] here?
**A.** 0.218 ± 0.25

**Q.** Which abundance fitness does the source give for RNLTILSLPEDVLFHILKLLSVEDILAVRAVHSQLKDLVDNHASVWACASFQE [W19L] here?
**A.** 0.293 ± 0.084

**Q.** For RNLTILSLPEDVLFHILKMLSVEDILAVRAVHSQLKDLVDNHASVWACASFQE [W19M], which abundance fitness is on record?
**A.** 0.33 ± 0.13

**Q.** With RNLTILSLPEDVLFHILKNLSVEDILAVRAVHSQLKDLVDNHASVWACASFQE [W19N] as the variant, how does the abundance fitness read?
**A.** 0.223 ± 0.11

**Q.** Which abundance fitness does the source give for RNLTILSLPEDVLFHILKPLSVEDILAVRAVHSQLKDLVDNHASVWACASFQE [W19P] here?
**A.** -0.458 ± 0.14

**Q.** For RNLTILSLPEDVLFHILKRLSVEDILAVRAVHSQLKDLVDNHASVWACASFQE [W19R], which abundance fitness is on record?
**A.** -0.154 ± 0.097

**Q.** With RNLTILSLPEDVLFHILKSLSVEDILAVRAVHSQLKDLVDNHASVWACASFQE [W19S] as the variant, how does the abundance fitness read?
**A.** -0.057 ± 0.091

**Q.** Which abundance fitness does the source give for RNLTILSLPEDVLFHILKTLSVEDILAVRAVHSQLKDLVDNHASVWACASFQE [W19T] here?
**A.** -0.269 ± 0.14

**Q.** With RNLTILSLPEDVLFHILKVLSVEDILAVRAVHSQLKDLVDNHASVWACASFQE [W19V] as the variant, how does the abundance fitness read?
**A.** -0.226 ± 0.084

**Q.** Which abundance fitness does the source give for RNLTILSLPEDVLFHILKYLSVEDILAVRAVHSQLKDLVDNHASVWACASFQE [W19Y] here?
**A.** 0.397 ± 0.17

**Q.** Which abundance fitness does the source give for RNLTILSLPEDVLFHILKWASVEDILAVRAVHSQLKDLVDNHASVWACASFQE [L20A] here?
**A.** -0.667 ± 0.16

**Q.** For RNLTILSLPEDVLFHILKWCSVEDILAVRAVHSQLKDLVDNHASVWACASFQE [L20C], which abundance fitness is on record?
**A.** -0.42 ± 0.16

**Q.** Which abundance fitness does the source give for RNLTILSLPEDVLFHILKWDSVEDILAVRAVHSQLKDLVDNHASVWACASFQE [L20D] here?
**A.** -0.675 ± 0.24

**Q.** With RNLTILSLPEDVLFHILKWESVEDILAVRAVHSQLKDLVDNHASVWACASFQE [L20E] as the variant, how does the abundance fitness read?
**A.** -0.982 ± 0.23

**Q.** With RNLTILSLPEDVLFHILKWFSVEDILAVRAVHSQLKDLVDNHASVWACASFQE [L20F] as the variant, how does the abundance fitness read?
**A.** -1.01 ± 0.24

**Q.** With RNLTILSLPEDVLFHILKWGSVEDILAVRAVHSQLKDLVDNHASVWACASFQE [L20G] as the variant, how does the abundance fitness read?
**A.** -0.605 ± 0.15

**Q.** Which abundance fitness does the source give for RNLTILSLPEDVLFHILKWHSVEDILAVRAVHSQLKDLVDNHASVWACASFQE [L20H] here?
**A.** -0.812 ± 0.48

**Q.** For RNLTILSLPEDVLFHILKWISVEDILAVRAVHSQLKDLVDNHASVWACASFQE [L20I], which abundance fitness is on record?
**A.** -0.673 ± 0.23

**Q.** For RNLTILSLPEDVLFHILKWKSVEDILAVRAVHSQLKDLVDNHASVWACASFQE [L20K], which abundance fitness is on record?
**A.** -0.838 ± 0.41

**Q.** Which abundance fitness does the source give for RNLTILSLPEDVLFHILKWNSVEDILAVRAVHSQLKDLVDNHASVWACASFQE [L20N] here?
**A.** -0.759 ± 0.23

**Q.** With RNLTILSLPEDVLFHILKWPSVEDILAVRAVHSQLKDLVDNHASVWACASFQE [L20P] as the variant, how does the abundance fitness read?
**A.** -0.893 ± 0.27

**Q.** For RNLTILSLPEDVLFHILKWQSVEDILAVRAVHSQLKDLVDNHASVWACASFQE [L20Q], which abundance fitness is on record?
**A.** -0.893 ± 0.26

**Q.** For RNLTILSLPEDVLFHILKWRSVEDILAVRAVHSQLKDLVDNHASVWACASFQE [L20R], which abundance fitness is on record?
**A.** -0.853 ± 0.14

**Q.** With RNLTILSLPEDVLFHILKWSSVEDILAVRAVHSQLKDLVDNHASVWACASFQE [L20S] as the variant, how does the abundance fitness read?
**A.** -0.705 ± 0.15

— the Human Domainome abundance scans (Beltran et al. 2025)
